From patent US20210017226A1, “METHOD OF GENERATING INTERACTING PEPTIDES” (Peption, LLC, priority 2017, published 2021)
Entries after “also recorded” stand apart in the source; their conditions may differ.

Tests used:
[1] = target: alkaline phosphatase target sequence (PTD8, […]) (Escherichia coli, UniProt P00634); conditions: dot blot, coil-beta sheet-coil target
Procedure: For dot blot analysis, 1 μl (2.5 μg) or 2 μl (5 μg) of samples were spotted onto the nitrocellulose (NC) membrane and dried completely. Then, non-specific sites were blocked by soaking the membrane in the blocking solution made for NC membranes [Thermo Fisher Scientific, WesternBreeze™ Blocker/Diluent (Part A and B), catalog #WB7050]. The membrane was washed twice with water (1 ml per cm^2 membrane), and incubated with the 1st antibody (Ab) in a binding/wash (BW) buffer [50 mM sodiumphosphate, pH 8.0, 300 mM NaCl, and 0.01% Tween 20] for 1 h. The membrane was washed 4 times (for 2 minutes per wash) with the wash buffer [Thermo Fisher Scientific, WesternBreeze™ Wash Solution, catalog #WB7003]. If the 1st oligopeptide was Anti-Cas9 Ab-HRP conjugate [Thermo Fisher Scientific, catalog #MAC133P] or the peptide-AP fusions, the membrane was washed twice with water, and incubated with the chromogenic substrates, Chromogenic Substrate (TMB) [Thermo Fisher Scientific, catalog #WP20004] for HRP and NBT/BCIP substrate solution for AP [Thermo Fisher Scientific, catalog #34042]. Otherwise, the membrane was incubated with in the blocking solution for 1 h. To detect His-tagged peptide and proteins, the Anti-6His Ab-HRP conjugate [Thermo Fisher Scientific, catalog 46-0707] was used. Then the membrane was washed four times with the wash buffer and two times with water. Finally, the blot was incubated with the chromogenic substrates.

[2] = target: T1, PDGF-β target sequence (PTD10, […]) (Homo sapiens, UniProt P01127); assay: Dot blot to detect the PDGF-β target sequence PTD10; assay type: binding; conditions: beta sheet target
T1 construct: […]; purchased Peptide 2.0
Procedure: (§1) Finally, the blot was incubated with the chromogenic substrates.

[3] = test system: whole proteome of E. coli BL21 Star DE3; assay: Western blot to detect binders in the whole proteome of E. coli BL21 Star DE3 (specificity); assay type: binding
Excerpt: For the western blot analysis, the protein samples were resolved in 4-20% gradient SDS-PAGE gel, transferred to NC membrane, and subjected to the western blot analysis using the same method for the dot blot analysis.

[4] = target: control peptide (PTD8, unrelated peptide) (Escherichia coli, UniProt P00634); conditions: dot blot, unrelated target (negative control)
Procedure: For dot blot analysis, 1 μl (2.5 μg) or 2 μl (5 μg) of samples were spotted onto the nitrocellulose (NC) membrane and dried completely. Then, non-specific sites were blocked by soaking the membrane in the blocking solution made for NC membranes [Thermo Fisher Scientific, WesternBreeze™ Blocker/Diluent (Part A and B), catalog #WB7050]. The membrane was washed twice with water (1 ml per cm^2 membrane), and incubated with the 1st antibody (Ab) in a binding/wash (BW) buffer [50 mM sodiumphosphate, pH 8.0, 300 mM NaCl, and 0.01% Tween 20] for 1 h. The membrane was washed 4 times (for 2 minutes per wash) with the wash buffer [Thermo Fisher Scientific, WesternBreeze™ Wash Solution, catalog #WB7003]. If the 1st oligopeptide was Anti-Cas9 Ab-HRP conjugate [Thermo Fisher Scientific, catalog #MAC133P] or the peptide-AP fusions, the membrane was washed twice with water, and incubated with the chromogenic substrates, Chromogenic Substrate (TMB) [Thermo Fisher Scientific, catalog #WP20004] for HRP and NBT/BCIP substrate solution for AP [Thermo Fisher Scientific, catalog #34042]. Otherwise, the membrane was incubated with in the blocking solution for 1 h. To detect His-tagged peptide and proteins, the Anti-6His Ab-HRP conjugate [Thermo Fisher Scientific, catalog 46-0707] was used. Then the membrane was washed four times with the wash buffer and two times with water. […]

[5] = target: T2, Cas9 protein (Streptococcus pyogenes serotype M1, UniProt Q99ZW2); assay: Dot blot to detect whole Cas9 protein (non-denatured); assay type: binding; conditions: Cas9 (no tag)
T2 construct: made in house; host or cells: E. coli BL21 Star (DE3)
Procedure: as §1

[6] = target: T2, Cas9 protein; assay: Western blot to detect whole Cas9 protein (denatured); assay type: binding; conditions: Cas9 (no tag), 4-20% SDS-PAGE
Procedure: as §1

[7] = target: T3, Cas9 nuclease (Streptococcus pyogenes serotype M1, UniProt Q99ZW2); assay: Cas9 activity assay in vitro (RNA-guided cleavage of 510 bp human AAVS1 DNA); assay type: biochemical
T3 construct: made in house; host or cells: E. coli BL21 Star (DE3)
Excerpt: The sgRNA targeting human AAVS1 region (target sequence […] (SEQ ID NO: 36), PAM sequence underlined) was synthesized by in vitro transcription using a 118 bp PCR-assembled DNA fragment AAVS1_T23826 as template, following the manufacturer's protocol [Thermo Fisher Scientific, TranscriptAid T7 High Yield Transcription Kit, catalog #K0441]. The sgRNA product was purified using the GeneJET RNA Purification Micro Column [Thermo Fisher Scientific, catalog #K0841].
A 510 bp human AAVS1 region was amplified from HEK293 genomic DNA by PCR using a primer set (CH1161 and CH1162) and used as a target DNA for the in vitro CRISPR/Cas9 assay. Performance of the Cas9 protein was assessed in various concentrations of Cas9 [100, 50, 25, 12.5, and 0 ng] in presence or absence of sgRNA and peptides (PTD14 (SEQ ID NO: 11) and PTD16 (SEQ ID NO: 30)) in the 1× buffer K [20 mM Tris-HCl, pH 8.5, 10 mM MgCl2, 1 mM Dithiothreitol (DTT), and 100 mM KCl]. The PTD16 (SEQ ID NO: 30) was used as an unrelated peptide control. The reaction mixture was incubated at 37° C. for 15 minutes. The reaction was stopped by adding a stop buffer [1 mM Tris-HCl (pH 7.5), 10 mM EDTA, 6.5% (w/v) Sucrose, 0.03% (w/v) Bromophenol Blue] and heat inactivated at 75° C. for 5 minutes. The reaction samples were resolved in 4% agarose gel.

[8] = target: T4, Cas9 target sequence (PTD12, EKLYLYYLQ, Helix: E813 to Q821) (Streptococcus pyogenes serotype M1, UniProt Q99ZW2); assay: Dot blot to detect the Cas9 target sequence peptide PTD12; assay type: binding; conditions: for interaction of His-tagged synthetic CAAP oligopeptide with the target peptide PTD12: dot blot, peptide as 1st Ab, Anti-6His Ab-HRP detection
T4 construct: […]; purchased Peptide 2.0
Procedure: as §1
For the image processing, we used Adobe Photoshop 7.0. Quantitative image analysis of the digital images was carried out using measuring tools of imaging software ImageJ (Schneider et al. 2012). Image analysis results were calculated by averaging data from three independent experiments.

T3 sequence (Q99ZW2 whole entry): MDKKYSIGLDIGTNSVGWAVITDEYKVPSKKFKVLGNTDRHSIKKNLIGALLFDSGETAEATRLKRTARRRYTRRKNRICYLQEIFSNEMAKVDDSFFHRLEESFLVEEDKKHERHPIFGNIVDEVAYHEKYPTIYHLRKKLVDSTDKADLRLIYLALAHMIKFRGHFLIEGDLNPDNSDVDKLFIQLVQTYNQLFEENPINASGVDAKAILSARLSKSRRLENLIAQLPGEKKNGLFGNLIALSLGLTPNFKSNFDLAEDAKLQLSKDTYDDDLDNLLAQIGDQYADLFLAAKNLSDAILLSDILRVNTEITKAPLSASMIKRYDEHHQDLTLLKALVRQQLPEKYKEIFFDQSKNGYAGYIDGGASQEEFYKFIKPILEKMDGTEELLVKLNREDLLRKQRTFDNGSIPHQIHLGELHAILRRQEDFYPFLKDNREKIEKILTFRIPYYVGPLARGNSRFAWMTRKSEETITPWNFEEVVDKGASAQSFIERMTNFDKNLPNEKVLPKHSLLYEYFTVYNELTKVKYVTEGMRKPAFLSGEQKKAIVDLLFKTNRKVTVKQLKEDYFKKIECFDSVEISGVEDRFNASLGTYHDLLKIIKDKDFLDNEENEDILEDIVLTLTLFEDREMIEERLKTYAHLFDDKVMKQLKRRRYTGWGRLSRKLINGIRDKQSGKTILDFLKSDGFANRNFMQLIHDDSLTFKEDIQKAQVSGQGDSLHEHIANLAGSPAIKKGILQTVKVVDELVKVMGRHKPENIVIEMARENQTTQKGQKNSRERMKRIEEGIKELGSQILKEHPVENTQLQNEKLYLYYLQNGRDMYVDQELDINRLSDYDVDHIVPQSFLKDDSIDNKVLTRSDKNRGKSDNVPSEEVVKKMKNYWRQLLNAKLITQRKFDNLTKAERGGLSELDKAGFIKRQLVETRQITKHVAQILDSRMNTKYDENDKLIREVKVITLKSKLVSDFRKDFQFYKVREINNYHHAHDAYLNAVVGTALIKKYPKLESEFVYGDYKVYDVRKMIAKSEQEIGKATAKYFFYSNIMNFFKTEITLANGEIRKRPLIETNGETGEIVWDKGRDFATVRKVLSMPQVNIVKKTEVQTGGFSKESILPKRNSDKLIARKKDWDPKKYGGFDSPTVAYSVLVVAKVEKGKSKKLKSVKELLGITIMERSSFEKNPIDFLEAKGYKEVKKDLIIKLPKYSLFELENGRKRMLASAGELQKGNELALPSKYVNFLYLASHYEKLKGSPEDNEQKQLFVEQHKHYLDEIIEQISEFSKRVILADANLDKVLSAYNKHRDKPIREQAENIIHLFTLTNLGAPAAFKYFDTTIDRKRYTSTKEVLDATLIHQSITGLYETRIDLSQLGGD
T2 sequence (Q99ZW2 whole entry): as above

Sequence: LSRAYLSYEGSGSHHHHHH [PTD15]
- interaction with the AP target oligopeptide PTD8 [1]: no detectable interaction

Sequence: GSGSHHHHHH [PTD20, reference compound]
- interaction with the PDGF-β target oligopeptide PTD10 [2]: no detectable interaction
- interaction with the AP target oligopeptide PTD8 [1]: no detectable interaction

Sequence: EYRLYLRALCYPENLSRAYLSYEGSGSHHHHHH [PTD16]
- interaction with the AP target oligopeptide PTD8 [1]: bound to the target

Sequence: LLQVDVILLCYPENLEQIKIRLFGSGSHHHHHH [PTD14, synthetic His-tagged CAAP oligopeptide dimer (sAb) against Cas9]
- number of major bands detected in E. coli whole cell lysate [3]: one
- number of minor bands detected in E. coli whole cell lysate [3]: 4
- interaction of His-tagged synthetic CAAP oligopeptide with the control peptide PTD8 [4]: no interaction
- detection of whole Cas9 protein in dot blot [5]: able to detect
- detection of whole Cas9 protein in western blot [6]: able to detect
- effect on RNA-guided DNA cleavage by Cas9 nuclease ([7]; 510 bp AAVS1 DNA, 37° C. 15 minutes, PTD16 as unrelated peptide control): no significant effect
- non-specific DNA binding activity of the Cas9 protein directed by the peptide ([7]; presence or absence of gRNA, various Cas9 concentrations): significant induction; also recorded: very strong
- strength of interaction with PTD12 relative to monomer PTD13 ([8]; dot blot densitometry, dimer vs monomer): stronger (two-fold)
- interaction of His-tagged synthetic CAAP oligopeptide with the target peptide PTD12 [8]: could interact

Sequence: LEQIKIRLFGSGSHHHHHH [PTD13, synthetic His-tagged CAAP oligopeptide monomer (sAb) against Cas9]
- number of major bands detected in E. coli whole cell lysate [3]: one
- number of minor bands detected in E. coli whole cell lysate [3]: 2
- interaction of His-tagged synthetic CAAP oligopeptide with the control peptide PTD8 [4]: no interaction
- detection of whole Cas9 protein in dot blot [5]: unable to detect
- detection of whole Cas9 protein in western blot [6]: unable to detect
- interaction of His-tagged synthetic CAAP oligopeptide with the target peptide PTD12 [8]: could interact; also recorded: detected

Sequence: DLDYAQLRDKCYPENEDRLQSYDLDGSGSHHHHHH [PTD18, His-tagged CAAP oligopeptide dimer, parallel and antiparallel, against PDGF-β]
- interaction with the PDGF-β target oligopeptide PTD10 [2]: bound to the target

Sequence: EDRLQSYDLDGSGSHHHHHH [PTD17, His-tagged CAAP oligopeptide monomer, antiparallel, against PDGF-β]
- interaction with the PDGF-β target oligopeptide PTD10 [2]: no detectable interaction
